The numbers were not newly measured in paper PMC10404613, which cites them from elsewhere.

The series deals with UBC9 (Homo sapiens) (UniProt P63279).
UniProt P63279, sequence (P63279 2-158): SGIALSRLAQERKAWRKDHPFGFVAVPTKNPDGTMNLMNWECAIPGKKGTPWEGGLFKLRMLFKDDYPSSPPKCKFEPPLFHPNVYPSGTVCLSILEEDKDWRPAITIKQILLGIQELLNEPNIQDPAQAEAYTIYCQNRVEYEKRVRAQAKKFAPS

Turning to SUMO1 (from UniProt P63165), the Kd is 100 nM.

The Kd is the concentration at which binding is half-saturated.
